± gives the uncertainty stated by the source.

Results on 133 substances are retold here after the supplement of paper PMC12042874.

The data set in a line: amyloid nucleation score (Sup35N fusion, yeast selection) (log enrichment); library NNK3; higher = more nucleation; inactive = no reads after selection. Put shortly: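 Random libraries were run with three technical output replicates. In each, psi-negative yeast expressing Sup35N fused to peptides of 20 random codons were induced 24 hours with 100 μM copper sulfate and grown 7 days at 30°C on medium lacking adenine and uracil, and input and output plasmid inserts were Illumina-sequenced. The nucleation score is the DiMSum log enrichment of output over input reads, centred on the mode score of non-aggregating sequences, and sequences under 100 input reads were excluded.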
IMVVQYTWDWPGCCWIRWYL: the amyloid nucleation score result is “inactive”.

For the substance IMVWLRARSITYNQVDDRGS, the amyloid nucleation score entry was “inactive”.

Regarding IMYLRETGTK, the amyloid nucleation score result is “inactive”.

On to INCSLENLINKDLWVSSQVC, for which the amyloid nucleation score result is “inactive”.

As for INDLQTSPR, the amyloid nucleation score entry was “inactive”.

For INLTYRVTVRVQISAPGMCA, the amyloid nucleation score is -0.206 ± 0.65.

As for INNLFTRVSSIRFCVRS, the amyloid nucleation score entry was “inactive”.

INTNAYSGLEIYRYSTIAKG: the amyloid nucleation score result was “inactive”.

For the substance INVDGKNNPSRREKTISMGG, the amyloid nucleation score entry was “inactive”.

Turning to INWYIHFRPLWQGFR, the amyloid nucleation score result was “inactive”.

Consider IPALIVISQYRGANRFDCAF, for which the amyloid nucleation score entry is “inactive”.

On to IPFGFSI, for which the amyloid nucleation score entry is “inactive”.

For IPFLDKGYGR, the amyloid nucleation score result is “inactive”.

In the case of IPFNPALLVPRGFGSFIIPA, the amyloid nucleation score result was “inactive”.

For IPYDSSLLNSSNVCYLI, the amyloid nucleation score entry is “inactive”.

IQANSLLSRLLRLSGNCCWM registered an amyloid nucleation score of 0.127 ± 0.8.

For the substance IQFLTNKQALLEKFPGKSPW, the amyloid nucleation score result is “inactive”.

Consider IQLCTKIYSITKV, for which the amyloid nucleation score entry was “inactive”.

As for IRDLSLNQSGYFTFVTCWRC, the amyloid nucleation score was 2.73 ± 0.067.

As for IRDVG, the amyloid nucleation score was -0.573 ± 1.

Consider IRLFHEAIKGDLC, for which the amyloid nucleation score entry was “inactive”.

In the case of IRMIDWILLDAVT, the amyloid nucleation score entry was “inactive”.

With IRNGYSRICRIQRLGSMGM, the amyloid nucleation score entry was “inactive”.

Take IRTSGSMYIISIWRWVGRTL: the amyloid nucleation score result was “inactive”.

As to ISALKQSS, the amyloid nucleation score entry was “inactive”.

For ISCIGPFCSTIPLIKLNLIE, the amyloid nucleation score was determined as 1.3 ± 0.1.

Consider ISDTSCHIDTLRFLGRVRFL, for which the amyloid nucleation score entry is “inactive”.

With ISLVAAKLRTCF, the amyloid nucleation score result is “inactive”.

For ISSAYCGHIGLAAINRLILT, the amyloid nucleation score entry was “inactive”.

ISSFGARNTPWRTLSPAPEG gave an amyloid nucleation score of 0.184 ± 0.32.

ISSPNEVWSVIVEWPRIYC: the amyloid nucleation score entry is “inactive”.

Regarding ISTRPSM, the amyloid nucleation score entry is “inactive”.

In the case of ISTVNNIRIRFASKLGFFE, the amyloid nucleation score came to 1.25 ± 0.071.

Turning to ISVVMDNSACG, the amyloid nucleation score entry was “inactive”.

On to ISYNTVRYRYGFVYNRLLPW, for which the amyloid nucleation score entry is “inactive”.

Regarding ITDLYF, the amyloid nucleation score result was “inactive”.

ITGVFCTSHVRFNINFKLWE registered an amyloid nucleation score of 1.97 ± 0.063.

Consider ITPWCFLVSCIRVSYAIVPT, for which the amyloid nucleation score result is “inactive”.

ITSCCFVTLISVMSYGPCFG: the amyloid nucleation score was determined as 2.45 ± 0.089.

Regarding IVCYLSFASLDDLRTRHMCT, the amyloid nucleation score result is “inactive”.

For the substance IVERKVRPAHFYYSLVYEQS, the amyloid nucleation score entry is “inactive”.

For IVFNGLRSMNRE, the amyloid nucleation score result is “inactive”.

Regarding IVITHANTWMLLLVFPITAN, the amyloid nucleation score entry was “inactive”.

As to IVRYTHSSLVYFTDEMMVNR, the amyloid nucleation score came to 1.19 ± 0.12.

Regarding IVSCTCDRMADLGST, the amyloid nucleation score entry was “inactive”.

Consider IVSWLVRMVSWGVCRK, for which the amyloid nucleation score entry is “inactive”.

IVWASTWTCCTN: the amyloid nucleation score was found to be 2.73 ± 0.049.

Consider IVYMDECLYQFNGPDVVPMF, for which the amyloid nucleation score result is “inactive”.

As for IVYYGVTGLTRGFSEVRKIS, the amyloid nucleation score result is “inactive”.

Take IWFKWNRCNVRGMTWTDFYA: the amyloid nucleation score came out at 1.17 ± 0.082.

With IWFWKGICLRYTSRKGMNLR, the amyloid nucleation score worked out at 1.75 ± 0.11.

For IWMWLKTQSISRLGTGRTTN, the amyloid nucleation score result is “inactive”.

As to IWPNRHGLKNVLRDQREATL, the amyloid nucleation score result is “inactive”.

IWTLS: the amyloid nucleation score entry is “inactive”.

Turning to IWVWVWSYWGRNFLSLVRFV, the amyloid nucleation score result was “inactive”.

For IWWKNIGCAKYWVIPLRQWA, the amyloid nucleation score entry was “inactive”.

For IYAPRR, the amyloid nucleation score entry was “inactive”.

In the case of IYCVNSSAFVLEPF, the amyloid nucleation score entry was “inactive”.

The substance IYKSTFFKVRTSGPGRHFGF gave an amyloid nucleation score of 0.186 ± 0.37.

IYPFSDMLSFWGMGKCELLR: the amyloid nucleation score was -0.361 ± 1.1.

IYPVNFGWLLGFCAHPAIYD: the amyloid nucleation score result is “inactive”.

For IYRLKDRLDDLVSHVDICVV, the amyloid nucleation score result is “inactive”.

As to IYRVYYDSTLGMCPAWGFYK, the amyloid nucleation score result is “inactive”.

Regarding IYSMYQCLFVEHFS, the amyloid nucleation score entry is “inactive”.

For IYTCSTRSSSFYRRMIRSFL, the amyloid nucleation score result is “inactive”.

As to IYTVWMAKGVTPVQKGPSRY, the amyloid nucleation score result is “inactive”.

Take IYVARSGARGRGSWSLCKIC: the amyloid nucleation score came to 0.629 ± 0.28.

On to IYVDVNSDP, for which the amyloid nucleation score entry was “inactive”.

With IYVVLQTWHNYAMLTITGLV, the amyloid nucleation score is 0.228 ± 0.67.

Take IYYIDL: the amyloid nucleation score entry is “inactive”.

KAFCFF had an amyloid nucleation score of 1.24 ± 0.12.

Consider KAFFESMFWV, for which the amyloid nucleation score result was “inactive”.

For KARANFVYAKFHFTRAP, the amyloid nucleation score result was “inactive”.

Regarding KAVLWFGDIWRQVG, the amyloid nucleation score result is “inactive”.

The substance KAYISVIGKLDYQNFSMKRF registered an amyloid nucleation score of 2.41 ± 0.054.

Take KCCEQRAIIPFVGRTRSHAT: the amyloid nucleation score entry was “inactive”.

With KCISSRARK, the amyloid nucleation score entry was “inactive”.

With KCMGVSWLSNIVRSIRVIIS, the amyloid nucleation score result is “inactive”.

KCMQVVSSRSWVVHWGWKGG: the amyloid nucleation score entry is “inactive”.

With KCNRFRG, the amyloid nucleation score entry was “inactive”.

KCSNLVAFVI: the amyloid nucleation score entry is “inactive”.

As for KCTANL, the amyloid nucleation score result is “inactive”.

For the substance KDKQVV, the amyloid nucleation score result was “inactive”.

As to KDLWCSDSRS, the amyloid nucleation score result was “inactive”.

Take KDNTYVIFFYYLFVFVRTFL: the amyloid nucleation score result was “inactive”.

For KDVPPFFSSSFNWAGLRKDK, the amyloid nucleation score was determined as 0.436 ± 0.41.

As to KERVNRSLTYTVFSS, the amyloid nucleation score entry is “inactive”.

In the case of KEWVMRLSVGYIDSFHRFAW, the amyloid nucleation score entry was “inactive”.

In the case of KFGSLWRSNESDSSNSALRY, the amyloid nucleation score result was “inactive”.

For the substance KFLLTWK, the amyloid nucleation score entry was “inactive”.

For KFSCINVDPMHYSNSWTT, the amyloid nucleation score entry is “inactive”.

In the case of KFSTTFVTCSIVLVRILLDL, the amyloid nucleation score entry was “inactive”.

KFVFSFGSLYSVLTLERVEG showed an amyloid nucleation score of 0.388 ± 0.2.

KGCNYVNNSTAMLSRRSFYS: the amyloid nucleation score entry is “inactive”.

As to KGGSVGHQQLYMCWQYNPVF, the amyloid nucleation score entry was “inactive”.

KGHCQAVGLKEEKPR: the amyloid nucleation score result was “inactive”.

On to KGTSR, for which the amyloid nucleation score entry was “inactive”.

As for KGVDQGISECFLAVWFGRMN, the amyloid nucleation score entry was “inactive”.

Regarding KGYCFAYRQNSVELIP, the amyloid nucleation score result is “inactive”.

As to KHVGIVMH, the amyloid nucleation score result was “inactive”.

Substance KIILEIAMRTSLCRPTSSYL returned an amyloid nucleation score of 1.03 ± 0.099.

KIIYKGLYEHLIVMLNIINL: the amyloid nucleation score result is “inactive”.

In the case of KIMNSKNVLRHFSLGQWLHG, the amyloid nucleation score result is “inactive”.

For KIQTNCNFTC, the amyloid nucleation score came to 2.5 ± 0.067.

Turning to KITLDYRLGHVDRQTTISVK, the amyloid nucleation score entry was “inactive”.

Take KKDQTMVES: the amyloid nucleation score entry is “inactive”.

Turning to KKMLLWHI, the amyloid nucleation score result is “inactive”.

On to KKVISSCFYRVCVSSPAGSV, for which the amyloid nucleation score result was “inactive”.

Take KKVLN: the amyloid nucleation score result was “inactive”.

Take KLCYNNCVNLLII: the amyloid nucleation score was found to be 0.716 ± 0.13.

For KLFISPLEMLISRISWTILH, the amyloid nucleation score came to 0.152 ± 0.77.

In the case of KLNAVYTRSAGWLSHQEM, the amyloid nucleation score entry is “inactive”.

Consider KLNLG, for which the amyloid nucleation score entry is “inactive”.

As to KLNSGEVFWQDTL, the amyloid nucleation score result was “inactive”.

On to KLQEDKLGPSKNKPSVHLCF, for which the amyloid nucleation score result is “inactive”.

Turning to KLSCMSTIVCRYTFLQAKQT, the amyloid nucleation score result is “inactive”.

Consider KLSSFSSLQIYTWYMILG, for which the amyloid nucleation score entry was “inactive”.

With KLSSKY, the amyloid nucleation score result is “inactive”.

KLTHY: the amyloid nucleation score entry is “inactive”.

Regarding KLTNLI, the amyloid nucleation score result is “inactive”.

Turning to KLTVMVMQLASLRLAK, the amyloid nucleation score was -0.158 ± 0.35.

As for KLVYFRVFKSRFRSRVGGMV, the amyloid nucleation score entry was “inactive”.

Regarding KLYWNHAQYPNTTVSTVKFS, the amyloid nucleation score is -0.706 ± 1.4.

Regarding KMCDECIVLS, the amyloid nucleation score entry was “inactive”.

For KMDQYCWGFFVSWYMRKKVF, the amyloid nucleation score result was “inactive”.

On to KMSSHFV, for which the amyloid nucleation score entry is “inactive”.

In the case of KNEAPRTGQTRPRSTGMYRI, the amyloid nucleation score entry is “inactive”.

In the case of KNEVIYHWLRRRVNSRRTFR, the amyloid nucleation score entry is “inactive”.

KNKPEKRR: the amyloid nucleation score result was “inactive”.

Consider KNREVANYNDMYSDPILG, for which the amyloid nucleation score result is “inactive”.

With KNTGMGDTVSFRLVSAFEHI, the amyloid nucleation score result is “inactive”.

KNYNNYMVSSNNLLVDIWLV: the amyloid nucleation score worked out at 1.47 ± 0.12.

On to KPKELSAHLNATM, for which the amyloid nucleation score entry was “inactive”.
